The results in this text go back to patent US20250277208A1, “Method of Peptide Library Construction and Peptides Thereof” (Alcamena Stem Cell Therapeutics, LLC, priority 2024, published 2025).

As usually defined, the IC50 is the concentration needed to halve the response being measured. As usually defined, the Kd is the free concentration of one partner at which half of the binding sites on the other are occupied at equilibrium, for simple one-to-one binding.

One assay concerns the target IL-6 signaling (Homo sapiens, UniProt P05231). Nature of the assay: IL-6 Bioassay (Promega), luciferase reporter cells, inhibition of IL-6-induced cell signaling. To be noted: peptides incubated with IL-6 for 10 min, IL-6 0.5 nM, cells 6 hours. It counts as cell-based. As for the experimental part: To verify the ability of the peptides of the invention to inhibit IL-6-signaling, they were tested with the IL-6 Bioassay Kit (Promega). This kit includes human cells engineered to express the IL-6 receptor and a luciferase reporter driven by a response element. When IL-6 binds, the IL-6R transduces intracellular signals resulting in luminescence (fluorescence). Inhibition of IL-6 interaction with the receptor leads to the decrease of the luciferase expression and lower fluorescence.
The selected peptides were incubated with IL-6 for 10 min before being added to cell culture medium. […] Peptides 27 (2), 38 (2) and 45 (2) were also tested.
The ability of peptides to inhibit IL-6 signaling pathway was tested with the IL-6 Bioassay from Promega (cat #JA2501). The bioluminescent signal is detected and quantified using Bio-Glo™ Luciferase Assay System. Different concentrations of the test peptides were mixed with IL-6 (0.5 nM) and added to the IL-6 Bioassay Cells according to the manufacturer's instructions. Cells were incubated for 6 hours in a humidified incubator at 37° C. and 5% CO2 concentration. Following incubation, 75 microliters of the Bio-Glo™ Reagent was added to the cell culture and the luminescence was measured with a Biotek Synergy HTX plate reader. Data was analyzed according to manufacturer's recommendations.
On the technique in general: A reporter such as luciferase makes a cellular process visible.

In a further assay the target is T1, IL-6 (Homo sapiens, UniProt P05231).
T1 construct: purchased R&D Systems BT7270B
Nature of the assay: Biacore surface plasmon resonance binding of peptides to immobilised IL-6. The following applies: Table 2, mutation combinations; N terminus acetylated, C terminus amidated; nd = not detected; read-out: KD (nM) P < 0.05.
Description: Two DNA fragments were amplified from a synthetic fragment of the IL-6R. The 5′ fragment was amplified with forward primer and a mixture of 432 reverse primers, each containing an overhang of 6 codons. The 3′ fragment was amplified with a mixture of 432 forward primers, also containing overhangs of six degenerate codons and the reverse primer. Either the first or the second nucleotide of each codon was replaced with a degenerate base. Following PCR amplification, DNA fragments were phosphorylated and ligated leading to various sequence rearrangements shown at the bottom of the FIG. 3. Four hundred thirty-two forward and reverse oligos with an overhang of 6 codons from the IL-6R binding domain were used for PCR. A degenerate nucleotide was inserted at the first or second position of each codon. When ligated, these sequences generated a library of 1×10^13 different DNA sequences. The library of DNA sequences was taken through eight rounds of mRNA Display generating a peptide library. Eighteen of the most abundant peptides in the peptide library were synthesized in a linear form and tested for binding to IL-6 using Biacore. One of the peptides (#9) (“Peptide 9”) from the peptide library, with the sequence of […] The twelve non-terminal residues represent the PepFusion library-derived DNA sequences, while N-terminal serine and C-terminal glycine come from the flanking linkers and were kept as a precaution, in case linker sequences contributed to peptide interaction with its target.
Binding reactions were performed in HBS-P/2% DMSO buffer (10 mM Hepes, pH 7.4, 150 mM NaCl, 0.05% P-20, 2% DMSO), which was filtered through […] filters and degassed before use. Biotinylated recombinant human IL-6 (IL-6-Biotin) was bound to the surface of a Biacore SA sensor chip of a Biacore T200 surface plasmon resonance unit as follows. The streptavidin surface of the chip (flow cells 1 and 2) was activated by injecting 20 μl of 1 M NaCl/50 mM NaOH at 20 μl/min, in 3 pulses. Biotinylated Recombinant Human IL6 was diluted with HBS-P buffer and an aliquot of 100 μl (2 micrograms/ml) was injected into flow cell 2 at 5 microliters/min to yield a signal of 1400 response units (RU) (10 microliters were injected). Any remaining activated residues on the streptavidin surface of flow cells 1 and 2 were blocked with 30 microliters 500 nM free Biotin.
(§1) Affinity scouting assay was performed at a flow rate of 30 microliters/min at 25° C. The analyte (60 microliter aliquots of peptides, at concentrations of 20 μM in HBS-P/2% DMSO buffer) was injected into flow cells 1 and 2 and the association reaction was recorded. The surface was then washed with HBS-P/2% DMSO for 3 min and the dissociation of the analyte from the bound IL6 was followed over time. The surfaces of the flow cells were regenerated with 30 microliters of 10 mM NaOH, followed 50 microliters of HBS-P/2% DMSO buffer.
as §1, with “Kinetics analysis of binding was performed” for “Affinity scouting assay was performed”, “concentrations of 0, 1.25 μM, 2.5 μM, 5 μM, 10 μM and 20 μM” for “concentrations of 20 μM”, “DMSO buffer. Sensorgrams were analyzed using BIAeveluation 3.2.1 software (Cytiva). Values from the reference flow cell were subtracted to obtain the values for specific binding. Data were globally fitted to the Langmuir model for a 1:1 mass transfer binding.” for “DMSO buffer.”

Assay [1] concerns the target T2, Biotinylated recombinant human IL-6 (human, UniProt P05231 30-212, biotinylated (sites not given)).
T2 construct: In the cell bioassay IL-6 (0.5 nM) was used in solution; also called Interleukin-6; IL-6-Biotin
Nature of the assay: SPR (Biacore), IL-6 on chip.

The target in assay [2] is T2, Biotinylated recombinant human IL-6. The assay can be described thus: cell-based or functional assay.
Assay [3] shares this target. Nature of the assay: SPR (Biacore), IL-6 on chip. The source holds these as a separate data set. (In general: Surface plasmon resonance follows binding to a sensor surface in real time, without labels.)
For assay [4] the target is unchanged. Nature of the assay: SPR (Biacore), IL-6 on chip. The source holds these as a separate data set.

Like-named read-outs stand apart in the source and are kept apart here.

IL-6 signaling, sequence (P05231 30-212): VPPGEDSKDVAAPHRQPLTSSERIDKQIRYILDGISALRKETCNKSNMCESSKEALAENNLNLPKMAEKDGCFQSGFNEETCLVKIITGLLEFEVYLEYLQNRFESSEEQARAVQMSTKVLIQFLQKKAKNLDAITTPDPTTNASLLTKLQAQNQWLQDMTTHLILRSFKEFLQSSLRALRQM

As to “Ac-SVRDLLRRMCHIVG-NH2 [9(2), SVRDLLRRMCHIVG]”, the IC50 on IL-6 signaling was 85 nM. For the molecule “Ac-SVRDLLRRMKVCVG-NH2 [27(2), SVRDLLRRMKVCVG]”, on IL-6, the dissociation constant Kd is 580 ± 156 nM. Also, the IC50 on IL-6 signaling came out at 580 nM.

Turning to “Ac-SFRDLIRMMKVCVG-NH2 [Peptide 90, SFRDLIRMMKVCVG]”, on IL-6 signaling, the half-inhibitory concentration (IC50) is 1200 nM. Turning to “Ac-TIRDLIRMMKVCVG-NH2 [Peptide 100, TIRDLIRMMKVCVG]”, the half-inhibitory concentration (IC50) on IL-6 signaling was 16800 nM. Take SVRDWTPRMCHIVG (termini not protected) [Peptide 48]: the Kd in assay [1] was 2820 nM. SVRDLPTQMCHIVG (termini not protected) [Peptide 37]: in assay [1], the Kd was 649 nM.

As to CVYRDLLRRMCHIVG (termini not protected) [Peptide 35], the binding result in assay [1] is recorded as “no binding (tested: 20 µM highest peptide concentration)”.

With Ac-FAFRDLLRRMCHIVG-NH2 [Peptide 45 (2)], the “IC50, inhibition of IL-6-induced cell signaling (IL-6 Bioassay, luciferase reporter cells)” value (“IC50, inhibition” below) in assay [2] is 72 nM. For the same molecule, in assay [3], the Kd is 147 nM.

As to Ac-FSFRDLLRRMCHIVG-NH2 [Peptide 72], in assay [2], the “IC50, inhibition” value stood at 23.5 nM.

B1: Peptide 44 (peptide)
peptide: H-SVRDLQKQMCHIVG-OH
notes: Printed SVRDLQKOMCHIVG (the letter O is as printed, perhaps a misprint); termini not protected
Take B1: the binding result in assay [1] is “no binding (tested: 20 µM highest peptide concentration)”. Ac-TIRDLIRMMKVCVG-NH2 [Peptide 100]: the “IC50, inhibition” value in assay [2] turned out to be 16800 nM. Moreover, the dissociation constant Kd in assay [4] is 50 nM; in assay [3], 59 nM. On to SVRDLLSHNCHIVG (termini not protected) [Peptide 43], for which, in assay [1], the binding result was “no binding (tested: 20 µM highest peptide concentration)”. For Ac-SVRDLLRRMCHIVG-NH2 (peptide 9 with protected termini) [Peptide 9 (2)], in assay [2], the “IC50, inhibition” value worked out at 85.4 nM. The Kd in assay [4] is 300 nM; in assay [3] it was 354 nM. As to SVRDLQSTMCHIVG (termini not protected) [Peptide 47], the binding result in assay [1] is “no binding (tested: 20 µM highest peptide concentration)”. With Ac-ATIRDLLRRMCHIVG-NH2 [Peptide 38 (2)], in assay [2], the “IC50, inhibition” value was 142 nM. Moreover, the dissociation constant Kd in assay [3] turned out to be 115 nM.

Turning to Ac-ATIRDLIRMMKVCVG-NH2 [Peptide 82], the “IC50, inhibition” value in assay [2] is 183 nM. Regarding SVRDANYRMCHIVG (termini not protected) [Peptide 39], in assay [1], the binding result is reported as “no binding (tested: 20 µM highest peptide concentration)”.

In the case of Ac-SVRDLLRRMKVCVG-NH2 [Peptide 27 (2)], the “IC50, inhibition” value in assay [2] came out at 580 nM. For the molecule Ac-TIRDLLRRMCHIVG-NH2 [Peptide 71], the “IC50, inhibition” value in assay [2] worked out at 3400 nM. In assay [3], the equilibrium dissociation constant (Kd) came out at 49 nM. Consider SVRDLLRRMCVFWG (termini not protected) [Peptide 49], for which, in assay [1], the binding result is “no binding (tested: 20 µM highest peptide concentration)”.

Ac-SFRDLIRMMKVCVG-NH2 [Peptide 90]: in assay [2], the “IC50, inhibition” value was determined as 1200 nM. In addition, the dissociation constant (Kd) in assay [4] was 30 nM; in assay [3] it was 42 nM.
